Source: patent publication US9808535B2, “Conjugates for protection from nephrotoxic active substances” (Merck Patent GmbH, priority 2013, dated 2017)
Residues, ends and D or L forms follow the SMILES beside them. ξ: configuration not given here. *: point of attachment. Lipoyl(6ξ) = O=C(CCCCC1CCSS1)*

Key:
[1] = mouse, in vivo, iv
[2] = infusion, 740 to 900 mg/m^2 of body surface area; cited from earlier work

Structure (SMILES) | kidney specificity [1] | arterial hypotension as severe side effect [2]
NCCCCC(NC(=O)C(CCC(=O)O)NC(=O)C(CCC(=O)O)NC(=O)C(CCC(=O)O)NC(=O)C(CCCCNC(=O)CCCCC1CCSS1)NC(=O)C(CCCCN)NC(=O)C(CCCCN)NC(=O)C(CCC(=O)O)NC(=O)C(CCC(=O)O)NC(=O)C(CCC(=O)O)NC(=O)C(CCCCNC(=O)CCCCC1CCSS1)NC(=O)C(CCCCN)NC(=O)C(CCCCN)NC(=O)C(CCC(=O)O)NC(=O)C(CCC(=O)O)NC(=O)C(CCC(=O)O)NC(=O)C(CCCCNC(=O)CCCCC1CCSS1)NC(=O)C(CCCCN)NC(=O)C(CCCCN)NC(=O)C(N)Cc1ccc(O)cc1)C(N)=O (centres unmarked) [y(KKKe(lipoic acid)EEE)3K] (H-YKKK(Lipoyl(6ξ))EEEKKK(Lipoyl(6ξ))EEEKKK(Lipoyl(6ξ))EEEK-NH2; configuration not given here) | high kidney specificity | –
NCCCNCCSP(=O)(O)O [Amifostin] | – | In over half of patients
